The values that follow are results of earlier work, collected in publication PMC10947368.

One series concerns the target IL-2Rα (Homo sapiens) (UniProt P01589).
The target in series [1] is IL-2Rβ/γc heterodimeric receptor (Homo sapiens) (UniProt P14784).
Sequence of UniProt P14784 (P14784 27-240, chain 1 of 2): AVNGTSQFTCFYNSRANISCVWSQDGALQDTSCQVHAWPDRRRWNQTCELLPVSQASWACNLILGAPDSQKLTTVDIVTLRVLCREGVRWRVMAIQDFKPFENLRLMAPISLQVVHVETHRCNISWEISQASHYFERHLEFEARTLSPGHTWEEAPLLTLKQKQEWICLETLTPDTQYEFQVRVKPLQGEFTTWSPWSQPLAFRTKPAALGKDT
Sequence of UniProt P14784 (P31785 23-262, chain 2 of 2, further chain): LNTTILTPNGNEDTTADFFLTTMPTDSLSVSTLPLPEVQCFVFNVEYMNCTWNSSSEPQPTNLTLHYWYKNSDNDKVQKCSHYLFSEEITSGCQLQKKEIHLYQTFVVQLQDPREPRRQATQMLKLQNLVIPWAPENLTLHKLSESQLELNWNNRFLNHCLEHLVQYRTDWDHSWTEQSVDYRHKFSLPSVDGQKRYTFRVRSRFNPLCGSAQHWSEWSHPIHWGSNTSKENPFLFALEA

Sequence of UniProt P01589 (P01589 22-240): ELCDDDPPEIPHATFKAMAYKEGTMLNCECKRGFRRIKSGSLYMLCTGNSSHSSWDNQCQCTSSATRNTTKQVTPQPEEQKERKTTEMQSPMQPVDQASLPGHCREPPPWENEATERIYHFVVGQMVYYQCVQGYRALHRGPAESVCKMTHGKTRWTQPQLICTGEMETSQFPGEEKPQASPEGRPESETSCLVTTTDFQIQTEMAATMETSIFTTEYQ

The Kd is the equilibrium constant for the complex coming apart. On to Interleukin-2 (from UniProt P60568), for which the Kd with IL-2Rα (Homo sapiens) is 10 nM; in series [1], 1 nM.
